Test results published in article PMC8580143.

Legend:
[1] = biological target: endogenous rat PP1γ (rat (endogenous in primary hippocampal neurons)) (UniProt P63088); assay: proximity ligation; PLA in fixed primary rat hippocampal neurons with Tau7 and a PP1γ-specific antibody; puncta per area of Tau12 staining; n = 3; untransduced neurons for endogenous tau; set-up: unit not given here
[2] = biological target: endogenous rat PP1 (detected with an antibody that recognizes all PP1 isoforms) (rat (endogenous in primary hippocampal neurons)) (UniProt P62138); assay: proximity ligation; PLA in fixed primary rat hippocampal neurons (DIV 8) with Tau7 and a pan-PP1 antibody; puncta per area of Tau12 (human tau) staining; n = 3; untransduced neurons for endogenous tau; set-up: unit not given here
Sequence of UniProt P62138 (P62138 whole entry, canonical isoform): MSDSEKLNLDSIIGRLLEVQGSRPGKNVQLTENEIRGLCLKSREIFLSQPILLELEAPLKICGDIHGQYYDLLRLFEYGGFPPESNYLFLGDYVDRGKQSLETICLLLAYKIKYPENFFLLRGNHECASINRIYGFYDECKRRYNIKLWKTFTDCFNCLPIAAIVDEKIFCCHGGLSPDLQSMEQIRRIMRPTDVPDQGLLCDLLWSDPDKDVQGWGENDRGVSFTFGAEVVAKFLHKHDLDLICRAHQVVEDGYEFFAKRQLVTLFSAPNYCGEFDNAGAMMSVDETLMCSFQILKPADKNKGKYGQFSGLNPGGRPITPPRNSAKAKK

Sequence of UniProt P63088 (P63088 whole entry, canonical isoform): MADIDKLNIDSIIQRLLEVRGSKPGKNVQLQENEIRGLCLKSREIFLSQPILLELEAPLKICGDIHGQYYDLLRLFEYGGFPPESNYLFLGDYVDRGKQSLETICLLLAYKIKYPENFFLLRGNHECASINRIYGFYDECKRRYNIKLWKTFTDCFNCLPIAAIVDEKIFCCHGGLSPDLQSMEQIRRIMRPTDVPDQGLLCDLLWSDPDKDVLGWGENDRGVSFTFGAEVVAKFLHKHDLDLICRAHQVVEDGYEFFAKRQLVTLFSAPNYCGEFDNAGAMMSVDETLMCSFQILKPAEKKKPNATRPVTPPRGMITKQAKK

“P301L mutant human tau (C-terminally FLAG-tagged) expressed by lentivirus in rat hippocampal neurons (natural protein)” gave a PLA puncta per area of Tau12 staining [1] of 28 and a PLA puncta per area of Tau12 staining [2] of 67.3.
With “R5L mutant human tau (C-terminally FLAG-tagged) expressed by lentivirus in rat hippocampal neurons (natural protein)” the PLA puncta per area of Tau12 staining [1] was 16.2 and the PLA puncta per area of Tau12 staining [2] was 31.3.
With “wild-type human tau (C-terminally FLAG-tagged) expressed by lentivirus in rat hippocampal neurons (natural protein)” the PLA puncta per area of Tau12 staining [1] was 11.3 and the PLA puncta per area of Tau12 staining [2] was 23.1.
